Results as given in patent US20220204643A1 (published 2022).
Each block holds one binder with its values, some of them ahead of it.

Tests used:
[1] = molecular target: T1, nudE neurodevelopment protein 1, transcript variant 1 (human, UniProt Q9NXR1 1-335); assay: protein array
T1 construct: on protein array; also called NDE1
T1 sequence: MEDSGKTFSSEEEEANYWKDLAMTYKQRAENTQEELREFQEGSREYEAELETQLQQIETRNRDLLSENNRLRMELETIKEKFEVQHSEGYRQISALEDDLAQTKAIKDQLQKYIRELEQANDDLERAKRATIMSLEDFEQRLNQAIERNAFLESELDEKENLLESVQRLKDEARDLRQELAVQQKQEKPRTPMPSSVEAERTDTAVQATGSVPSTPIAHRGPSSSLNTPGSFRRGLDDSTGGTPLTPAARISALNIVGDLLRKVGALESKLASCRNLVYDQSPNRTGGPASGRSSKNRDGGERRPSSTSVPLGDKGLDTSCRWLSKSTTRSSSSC

[2] = molecular target: T2, PNMA family member 5, transcript variant 2 (human, UniProt Q96PV4 1-448); assay: protein array
T2 construct: on protein array; also called PNMA5
T2 sequence (Q96PV4 other isoform, or with tags, fused parts or gaps mutant limits assumed): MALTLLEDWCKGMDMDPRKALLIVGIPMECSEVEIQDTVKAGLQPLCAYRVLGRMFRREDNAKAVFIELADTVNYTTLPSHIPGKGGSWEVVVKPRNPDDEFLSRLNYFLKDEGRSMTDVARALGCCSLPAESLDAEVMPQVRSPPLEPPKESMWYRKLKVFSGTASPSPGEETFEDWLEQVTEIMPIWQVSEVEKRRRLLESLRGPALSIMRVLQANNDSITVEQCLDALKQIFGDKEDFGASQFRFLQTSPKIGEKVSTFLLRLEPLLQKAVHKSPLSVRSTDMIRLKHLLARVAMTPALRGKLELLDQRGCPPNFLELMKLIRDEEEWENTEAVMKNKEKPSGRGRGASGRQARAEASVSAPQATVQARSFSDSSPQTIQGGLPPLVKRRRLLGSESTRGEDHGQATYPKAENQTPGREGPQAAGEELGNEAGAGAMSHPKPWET

[3] = molecular target: T3, phospholipase C delta 1, transcript variant 2 (human, UniProt P51178 1-756); assay: protein array
T3 construct: on protein array; also called PLCD1
T3 sequence: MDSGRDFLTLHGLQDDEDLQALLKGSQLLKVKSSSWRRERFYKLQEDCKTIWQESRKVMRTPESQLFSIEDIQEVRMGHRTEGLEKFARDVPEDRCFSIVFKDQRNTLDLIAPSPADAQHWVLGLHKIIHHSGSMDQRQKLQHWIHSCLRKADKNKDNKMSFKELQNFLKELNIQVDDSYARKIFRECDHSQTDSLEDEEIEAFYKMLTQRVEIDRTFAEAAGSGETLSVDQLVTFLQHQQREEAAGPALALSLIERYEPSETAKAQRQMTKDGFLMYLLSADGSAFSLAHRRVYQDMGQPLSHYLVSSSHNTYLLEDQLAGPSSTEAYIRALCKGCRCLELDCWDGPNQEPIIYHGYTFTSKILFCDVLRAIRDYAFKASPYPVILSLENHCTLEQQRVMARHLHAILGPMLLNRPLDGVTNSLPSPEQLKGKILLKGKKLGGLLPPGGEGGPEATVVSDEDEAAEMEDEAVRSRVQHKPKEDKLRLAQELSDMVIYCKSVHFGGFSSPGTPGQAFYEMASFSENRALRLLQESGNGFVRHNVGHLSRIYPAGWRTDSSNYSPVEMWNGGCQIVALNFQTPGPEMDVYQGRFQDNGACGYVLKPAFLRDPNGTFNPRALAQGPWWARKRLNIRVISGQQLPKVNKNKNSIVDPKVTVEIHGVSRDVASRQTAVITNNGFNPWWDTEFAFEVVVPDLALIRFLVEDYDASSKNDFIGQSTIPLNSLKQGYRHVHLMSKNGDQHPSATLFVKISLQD

[4] = molecular target: T4, zinc finger protein 326, transcript variant 1 (human, UniProt Q5BKZ1 1-582); assay: protein array
T4 construct: on protein array; also called ZNF326
T4 sequence: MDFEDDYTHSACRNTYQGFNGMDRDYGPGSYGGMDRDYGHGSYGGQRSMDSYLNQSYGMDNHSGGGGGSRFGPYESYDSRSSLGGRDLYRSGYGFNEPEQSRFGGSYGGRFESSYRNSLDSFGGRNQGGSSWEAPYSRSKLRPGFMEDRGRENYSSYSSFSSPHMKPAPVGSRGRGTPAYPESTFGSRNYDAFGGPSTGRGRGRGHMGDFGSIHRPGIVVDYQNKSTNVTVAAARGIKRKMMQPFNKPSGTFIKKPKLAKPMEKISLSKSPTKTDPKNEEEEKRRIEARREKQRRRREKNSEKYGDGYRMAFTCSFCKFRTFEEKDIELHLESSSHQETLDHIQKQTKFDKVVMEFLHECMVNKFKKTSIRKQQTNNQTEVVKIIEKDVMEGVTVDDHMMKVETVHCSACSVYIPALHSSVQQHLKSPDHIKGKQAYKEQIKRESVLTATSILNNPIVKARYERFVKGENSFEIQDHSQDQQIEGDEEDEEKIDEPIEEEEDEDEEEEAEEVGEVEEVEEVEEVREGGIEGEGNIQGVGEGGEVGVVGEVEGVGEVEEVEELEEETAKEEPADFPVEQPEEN

LN608403.1_frag = molecular target: T5, LN608403.1_frag (human); assay: protein array
T5 construct: on protein array
T5 chain: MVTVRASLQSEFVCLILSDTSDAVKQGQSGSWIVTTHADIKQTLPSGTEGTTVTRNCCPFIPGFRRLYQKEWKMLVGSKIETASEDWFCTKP

[5] = molecular target: T6, JPX transcript, XIST activator (human); assay: protein array
T6 construct: on protein array
T6 chain: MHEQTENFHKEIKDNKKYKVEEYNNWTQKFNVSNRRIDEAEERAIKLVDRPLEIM

[6] = molecular target: T7, SNAP associated protein, transcript variant 1 (human, UniProt O95295 2-136); assay: protein array
T7 construct: on protein array; also called SNAPIN
T7 sequence: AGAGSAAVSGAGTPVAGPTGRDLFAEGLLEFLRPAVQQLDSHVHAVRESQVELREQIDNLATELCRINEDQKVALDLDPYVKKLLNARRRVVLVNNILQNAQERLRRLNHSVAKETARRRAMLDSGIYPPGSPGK

cancer/testis antigen 1A = molecular target: T8, cancer/testis antigen 1A (human, UniProt P78358 1-180)
T8 construct: also called CTAG1A
T8 sequence (P78358 whole entry): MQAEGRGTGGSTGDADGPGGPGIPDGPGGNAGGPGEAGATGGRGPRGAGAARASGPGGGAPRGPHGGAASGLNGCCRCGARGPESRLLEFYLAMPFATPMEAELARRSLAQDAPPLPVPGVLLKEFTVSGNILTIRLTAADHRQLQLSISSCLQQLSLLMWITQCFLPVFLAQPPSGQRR

[7] = molecular target: T9, TruB pseudouridine synthase family member 1 (human, UniProt Q8WWH5 2-349); assay: protein array
T9 construct: on protein array; also called TRUB1
T9 sequence: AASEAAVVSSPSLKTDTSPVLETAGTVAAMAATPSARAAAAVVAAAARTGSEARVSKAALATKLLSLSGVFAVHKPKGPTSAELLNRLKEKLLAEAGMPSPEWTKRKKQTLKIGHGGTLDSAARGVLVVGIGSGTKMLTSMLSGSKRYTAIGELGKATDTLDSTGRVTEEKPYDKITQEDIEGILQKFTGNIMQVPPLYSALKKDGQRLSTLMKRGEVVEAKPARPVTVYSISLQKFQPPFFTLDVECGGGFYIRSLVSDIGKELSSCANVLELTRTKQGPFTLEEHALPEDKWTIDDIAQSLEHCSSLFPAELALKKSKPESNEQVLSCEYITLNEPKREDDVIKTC

[8] = molecular target: T10, phospholipid scramblase 4, transcript variant X4 (human, UniProt Q9NRQ2 1-329); assay: protein array
T10 construct: on protein array; also called PLSCR4
T10 chain: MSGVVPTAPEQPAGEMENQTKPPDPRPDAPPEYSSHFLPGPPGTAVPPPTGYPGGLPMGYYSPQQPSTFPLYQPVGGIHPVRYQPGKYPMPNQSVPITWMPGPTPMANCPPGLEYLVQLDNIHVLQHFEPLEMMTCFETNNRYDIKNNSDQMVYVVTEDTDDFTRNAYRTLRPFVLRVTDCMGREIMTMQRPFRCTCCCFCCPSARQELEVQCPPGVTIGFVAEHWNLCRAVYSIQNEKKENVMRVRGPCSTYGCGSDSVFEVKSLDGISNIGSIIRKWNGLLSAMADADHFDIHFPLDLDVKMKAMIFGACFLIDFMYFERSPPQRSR

[9] = molecular target: T11, UTP6 small subunit processome component (human, UniProt Q9NYH9 1-597)
T11 sequence: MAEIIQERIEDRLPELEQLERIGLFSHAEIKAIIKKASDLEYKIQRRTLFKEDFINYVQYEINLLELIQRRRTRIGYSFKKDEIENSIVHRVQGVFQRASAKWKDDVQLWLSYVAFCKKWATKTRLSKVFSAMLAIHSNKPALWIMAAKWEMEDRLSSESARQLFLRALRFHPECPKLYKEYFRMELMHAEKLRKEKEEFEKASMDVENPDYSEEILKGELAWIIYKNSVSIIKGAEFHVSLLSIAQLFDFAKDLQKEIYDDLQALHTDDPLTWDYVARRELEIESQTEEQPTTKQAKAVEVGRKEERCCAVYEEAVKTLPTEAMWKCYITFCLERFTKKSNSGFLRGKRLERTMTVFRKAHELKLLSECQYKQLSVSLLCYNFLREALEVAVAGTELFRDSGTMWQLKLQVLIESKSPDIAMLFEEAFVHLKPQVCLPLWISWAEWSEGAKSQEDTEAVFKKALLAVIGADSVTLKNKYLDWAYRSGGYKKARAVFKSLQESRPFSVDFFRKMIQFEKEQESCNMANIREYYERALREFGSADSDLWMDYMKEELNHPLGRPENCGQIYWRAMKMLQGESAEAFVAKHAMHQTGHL

[10] = molecular target: T12, nucleosome assembly protein 1 like 1, transcript variant 1 (human, UniProt P55209 2-388); assay: protein array
T12 construct: on protein array; also called NAP1L1
T12 sequence: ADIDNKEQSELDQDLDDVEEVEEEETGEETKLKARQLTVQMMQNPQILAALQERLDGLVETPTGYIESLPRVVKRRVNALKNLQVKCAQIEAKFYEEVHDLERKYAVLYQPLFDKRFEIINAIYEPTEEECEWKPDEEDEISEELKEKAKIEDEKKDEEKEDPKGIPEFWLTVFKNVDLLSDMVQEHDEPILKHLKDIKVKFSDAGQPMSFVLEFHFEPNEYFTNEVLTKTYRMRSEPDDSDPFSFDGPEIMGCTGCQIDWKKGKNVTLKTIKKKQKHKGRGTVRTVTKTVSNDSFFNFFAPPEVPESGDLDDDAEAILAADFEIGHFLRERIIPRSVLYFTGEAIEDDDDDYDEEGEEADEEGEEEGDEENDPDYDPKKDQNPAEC

binding result (cancer/testis antigen 1A): binds
B5: TTHY1004 (antibody, V domains shown)
VH: PVQLQESGPGLVKPSQTLSLTCTVSGGSISSGTYYWSWIRQPAGKGLEWIGRIYASGSTNYNPSLKSRVTISVDTSKNQFSLKLTSVTAADTAVYYCARYSGSYPLGFDYWGQGTLVTVSS
VL: DIQMTQSPSSLSASVGDRVTITCRASQSISTYLNWYQQKPGMAPKLLIYAASTLQSGVPSRFSGSGSATDYTLTISSLQPEDFATYYCQQSYNTPLTFGGGTKVDIKR

binding result [7]: binds
binding result [8]: binds
B6: TCER1003 (antibody, V domains shown)
VH: QITLKESGPTLVKPTQTLTLTCTFSGFSLTTTDVGVGWIRQPPGKALEWLTIIYWDDDERYSPSLKSRLTITKDTSKNQVVLSMTNMDPVDTATYYCARVYSTKWDFDYWGQGTLVTVSS
VL: VSSELTQDPAVSVALGQTVRITCQGDSLRRYYVSWYRQKPGEAPVVVIYGKNNRPSWIPDRLSGSSSGNTASLTITGAQAEDEADYYCCSRDSSGNPWVFGGGTKLTVLG
notes: VH/VL only

binding result [9]: binds
B7: TUCE1005 (antibody, V domains shown)
VH: QVQLQESGPGLVKPSETLSLTCTVSGGSISSYYWSWIRQPAGKGLEWIGRIYTSGSTNYNPSLKSRVTMSVDTSKNQFSLKMSSVTAADTAVYYCARGELLFDHWGQGTLVTVSS
VL: not shown

binding result [10]: binds
B8: TCER1001 (antibody, V domains shown)
VH: EVQLVESGGGLVQPGRSLRLSCAASGFTFDDYAMHWVRQAPGKGLEWVSGISWNSGSIGYADSVKGRFTISRDNAKNSLYLQMNSLRAEDTALYYCAKDLLGFRDQRNYYGMDVWGQGTTVTVSS
VL: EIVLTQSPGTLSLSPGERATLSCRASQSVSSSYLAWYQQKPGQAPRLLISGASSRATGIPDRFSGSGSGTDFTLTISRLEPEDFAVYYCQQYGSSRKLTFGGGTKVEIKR
notes: VH/VL only

More lines, now with the values behind:

B1: TCER1002 (antibody, V domains shown)
VH: QVQLQESGPGLVKPSETLSLSCTVSGASMNNYYWSWIRQSAGKGLEWIGRIYSSGDTDYNPSLKTRVTMSIDTSKNQFSLNLDSVTAADTATYYCARSFYDTLFYFENWGQGTLVTVSS
VL: DIQMTQSPSTLSASVGDRVTITCRASQSISVWLAWYQQKPGKAPKLLIYKASTLEAGVPSRFSGSGSGTEFSLTISGLQPDDFGTYFCQHYDSYPWTFGQGTKVEMK
notes: VH/VL only
binding result [1]: binds

B2: TBRE1039 (antibody, V domains shown)
VH: PVQLVQSGAEVKKPGSSVKVSCKASGGTFSSYAISWVRQAPGQGLEWMGGIIPIFGTANYAQKFQGRVTITADESTSTAYMELSSLRSEDTAVYYCARENWNSAGTTEWFDPWGQGTLVTVSS
VL: PYVLTQPPSVSVAPGKTARITCGGNNIGSKSVHWYQQKPGQAPVLVIYYDSDRPSGIPERFSGSNSGNTATLTISRVEAGDEADYYCQVWDSSSDHYVVFGGGTKLTVLG
notes: VH/VL only
binding result [2]: binds
binding result [3]: binds
binding result [4]: binds

B3: TBRE1045 (antibody, V domains shown)
VH: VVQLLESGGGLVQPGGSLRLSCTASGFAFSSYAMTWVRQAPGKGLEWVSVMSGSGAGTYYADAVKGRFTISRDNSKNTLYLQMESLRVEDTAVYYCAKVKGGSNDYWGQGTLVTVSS
VL: PYVLTQPPSVSVAPGQTARITCGGNNIGSKSVHWYQQKPGQAPVMVVYADRERPSGIPERLSGSNFGNTATLTISRVEAGDEADYYCQVWDSNNDHREVFGGGTKLTVLG
notes: VH/VL only
binding result (LN608403.1_frag): binds
binding result [5]: binds

B4: TBLA1006 (antibody, V domains shown)
VH: VQLVDSGGGLVQPGRSLRLSCAASGFVFDDYAMHWVRQVPGKGLEWVSGISWNSVSIGYADSVKGRFTISRDNAKNSLYLQMNSLRPEDAALYYCVKSFSAEYYYYYYGMDVWGQGTTVTVSS
VL: LYVLTQPPSVSVAPGTTAWISCGGNNIGIKSVHWYQQKPGQAPLLVISYDSDRPSVIPERFSVSNSGNTVTLTISRVEAGDEADYYCQVWDNGHSHWVFGGGTKLTVLG
notes: VH/VL only
binding result [6]: binds
